The text below walks through data of US11998613B2, “Antibody-drug conjugates containing an anti-mesothelin antibody and uses thereof” (DEVELOPMENT CENTER FOR BIOTECHNOLOGY, priority 2020, dated 2024).

In series [1] the target is T1, mesothelin protein (Homo sapiens, UniProt Q13421). Description: Affinity measurements and kinetic analysis using BIAcore (SPR), mesothelin immobilised. It is filed as binding. As for the experimental part:
To know the biding kinetics difference among individual antibodies, surface plasmon resonance (SPR) measurement with a BIAcore T200 (Cytiva Inc.) was used as previously described (Karlsson & Falt, (1997) J. Immunol Methods 200:121-133). Carboxymethylated dextran biosensor chips (CM5, Cytiva Inc.) were activated with N-ethyl-N′-(3-dimethylaminopropyl)-carbodiimide hydrochloride (EDC) and N-hydroxysuccinimide (NHS) according to the supplier's instructions. Mesothelin protein was diluted with 10 mM sodium acetate, pH 4.0, into 5 μg/ml before injection at a flow rate of 10 μL/minute to achieve approximately 1500 response units (RU) of coupled protein followed by the injection of 1M ethanolamine to block unreacted groups. For kinetics measurements, two-fold serial dilutions of anti-mesothelin mAb (0.3125 nM to 40 nM) were injected in HBS-EP+ Biacore running buffer provided by the manufacturer (Cytiva Inc.) at 25 degree C. at a flow rate of 30 μL/min, and binding responses on the mesothelin protein were corrected by subtraction of responses on a blank flow cell. Association rates (kon or ka) and dissociation rates (koff or kd) were calculated using a simple one-to-one Langmuir binding model with separate fittings of kon and koff was used. (Cytiva.™. Biacore Insight Evaluation Software).
In general terms: In SPR one partner is held on a chip, and binding of the other changes the refractive index at the surface.

Series [2] deals with KLM-1 human pancreatic cancer xenograft. Description: KLM-1 xenograft model (Example 44). The note with it: 30 mg/kg IV once weekly for 3 weeks. It is filed as in vivo. The protocol: Each of the formulations was administered intravenously (IV) to the mice once weekly for three weeks.
Five mice were housed in each cage.
When the average tumor volume had reached 200 mm^3, the mice were randomLy divided into 4 groups (N=6 per group). Each of the vehicle, DCBPR2002-4(DBCO-vc-MMAE) (15 and 30 mg/kg), and naked antibody (DCBPR2002, 30 mg/kg) was intravenously administered once weekly for 3 weeks.
Differences are considered significant at *P<0.05.

Series [3] addresses T1, mesothelin protein. Description: Binding kinetics of anti-mesothelin ADCs by surface plasma resonance (Biacore T100). The note with it: analyte MSLN; for Ka: antibody/ADC captured on CM5 chip via anti-human IgG-Fc; for dissociation rate constant (koff): antibody/ADC captured on CM5 chip. As for the experimental part:
The kinetic constant of the anti-mesothelin ADCs interaction against mesothelin was determined by surface plasma resonance (Biacore® T100, Biacore, Inc., Piscataway, NJ). The flow cell of the CM5 wafer was fixed with approximately 10,000 reaction units (RU) of anti-human IgG-Fc (Biacore®) in 10 mM glycine pH 5.0 at 10 μL/min for 600 seconds. 10 μg/mL of anti-mesothelin antibody and anti-mesothelin ADCs diluted in TBS at 10 μl/min were captured on CM5 chips. Four concentrations (from 3.7 to 100 nM) of human mesothelin recombinant protein and zero concentration (flow buffer) in 100 μl/min binding were recorded in PBS containing 1 mM CaCl2 for 3 minutes. The dissociation of the complex was measured for 10 minutes. The water surface was regenerated by injecting 3 M MgCl2 and 3 mM EGTA at 10 μl/min for 60 seconds. The curve obtained after subtracting the reference and buffer signals was taken into the 1:1 Langmuir binding model using the Biacore® T100 evaluation software (Biacore®).

The subject of series [4] is Pancreatic cancer cell line KLM-1 (MSLN+). Description: In vitro cytotoxicity, CellTiter-Glo luminescent cell viability assay, KLM-1. It is filed as cell-based, human. To be noted: KLM-1, 72 hours treatment; read-out: Relative IC50 (nM of toxic payload/ADCs). The protocol:
(§1) Pancreatic cancer cell line KLM-1 was respectively grown in RPMI 1640 Medium (ATCC modification) medium supplemented with 10% fetal bovine serum. Ovarian carcinoma cell line OVCAR-3 was grown in RPMI 1640 Medium (ATCC modification) medium supplemented with 20% fetal bovine serum. The KLM-1 & OVCAR-3 cell lines were maintained in an atmosphere of 5% CO2 in a humidified 37° C. incubator. The day before treatment, cells were collected and seeded into 96-well plates (4,000 cells per well). On the second day, cells were treated with 3-fold serial dilution concentration of toxic payloads and ADCs. Each treatment was performed in eight triplicate data points. After the treatment of 72 hours, cell viability was assessed by CellTiter-Glo® kit (Promega) according to the manufacturer's instruction. At the end of the incubation, luminescence was measured using a SpectraMax i3x Multi Mode Detection Platform (Molecular Devices). Compound cytotoxicity was evaluated in comparison to cells treated with 0.05% PBS (ADCs) or 0.05% DMSO (toxic payload). IC50 values were calculated by fitting viability data with a four-parameter logistic equation using GraphPad prism 5.0 software.
A general note: Cellular ATP, detected with luciferase, serves as a proxy for viable cell number.

Series [5] deals with Ovarian carcinoma cell line OVCAR-3 (MSLN+). Description: In vitro cytotoxicity, CellTiter-Glo luminescent cell viability assay, OVCAR-3. It is filed as cell-based, human. The note with it: OVCAR-3, 72 hours treatment; read-out: Relative IC50 (nM of toxic payload/ADCs). As for the experimental part: as §1, with “The” for “Pancreatic cancer cell line KLM-1 was respectively grown in RPMI 1640 Medium (ATCC modification) medium supplemented with 10% fetal bovine serum. Ovarian carcinoma cell line OVCAR-3 was grown in RPMI 1640 Medium (ATCC modification) medium supplemented with 20% fetal bovine serum. The”

For series [6], the system named is KLM-1 human pancreatic cancer xenograft. Description: KLM-1 xenograft model (Example 45). The note with it: 15 mg/kg IV once weekly for 3 weeks. As for the experimental part:
Formulations respectively comprising test article DCBPR2002-4(DBCO-vc-MMAE)(15 mg/kg), test article DCBPR2002-4(DBCO-vc-seco-DUBA)(15 mg/kg), test article DCBPR2002-4(DBCO-s-DM1) (15 mg/kg), test article DCBPR2002-2(DBCO-vc-MMAE)-2(DBCO-vc-seco-DUBA) (15 mg/kg), test article DCBPR2002-2(DBCO-vc-MMAE)-2(DBCO-s-DM1) (15 mg/kg), test article DCBPR2002-2(DBCO-vc-seco-DUBA)-2(DBCO-s-DM1) (15 mg/kg), and a corresponding vehicle were formulated by diluting the stock with a 25 mM sodium citrate buffer (pH6.5). Each of the formulations was administered intravenously (IV) once weekly for three weeks.
The KLM-1 cells were maintained in vitro as a monolayer culture in RPMI-1640 medium supplemented with 10% fetal bovine serum at 37° C. in an atmosphere of 5% CO2 in air. The tumor cells were routinely sub-cultured twice weekly by trypsin-EDTA treatment. The cells growing in an exponential growth phase were harvested and counted for tumor inoculation.
Male NOD SCID mice at age of 6-7 weeks were purchased from BioLasco Taiwan Co., LTD. and quarantined for one week. Five mice were housed in each cage. All animals were hosted in the animal facility with a 12-h light/12-h dark cycle at 19-25° C. Animals had free access to rodent pellet foods and water ad libitum.
KLM-1 cells were subcutaneously (SC) implanted (4×10^6 cells in 1:1 PBS/matrigel mixture at 0.1 mL per mouse) into the right flank of male NOD SCID mice. When the average tumor volume had reached 300 mm^3, the mice were randomly divided into 7 groups (N=6 per group). Each of the vehicle, DCBPR2002-4(DBCO-vc-MMAE), DCBPR2002-4(DBCO-vc-seco-DUBA), DCBPR2002-4(DBCO-s-DM1), DCBPR2002-2(DBCO-vc-MMAE)-2(DBCO-vc-seco-DUBA), DCBPR2002-2(DBCO-vc-MMAE)-2(DBCO-s-DM1), DCBPR2002-2(DBCO-vc-seco-DUBA)-2(DBCO-s-DM1) was intravenously administered as 15 mg/kg once weekly for 3 weeks.
The tumor volumes, body weights, mortality, and signs of overt toxicity were monitored and recorded three times weekly for 28 days. Tumor volumes were measured three times per week using calipers and calculated according to the formula: Tumor Volume=(w2×l)/2, where w=width and l=length in diameter (mm) of the tumor. […] One-way ANOVA followed by Dunnett's test was applied for comparison between the vehicle and test article-treated groups. Differences are considered significant at *P<0.05. Animals were weighed three times weekly until the completion of the study.

T1 sequence (Q13421 with tags, fused parts or gaps): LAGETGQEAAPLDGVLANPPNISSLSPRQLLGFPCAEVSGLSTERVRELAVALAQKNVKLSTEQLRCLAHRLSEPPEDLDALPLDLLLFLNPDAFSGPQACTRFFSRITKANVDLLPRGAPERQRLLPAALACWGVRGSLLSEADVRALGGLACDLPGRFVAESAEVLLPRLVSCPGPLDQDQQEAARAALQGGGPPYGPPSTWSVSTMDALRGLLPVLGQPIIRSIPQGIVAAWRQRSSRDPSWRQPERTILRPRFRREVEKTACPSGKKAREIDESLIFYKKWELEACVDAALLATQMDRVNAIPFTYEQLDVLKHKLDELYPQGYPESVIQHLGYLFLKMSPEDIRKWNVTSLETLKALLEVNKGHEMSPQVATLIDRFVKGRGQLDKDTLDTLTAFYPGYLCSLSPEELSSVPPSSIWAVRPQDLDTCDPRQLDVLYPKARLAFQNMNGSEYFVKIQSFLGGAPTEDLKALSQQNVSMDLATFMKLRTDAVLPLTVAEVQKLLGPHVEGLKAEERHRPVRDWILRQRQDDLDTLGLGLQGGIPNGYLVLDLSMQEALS

B1: DCBPR2002: humanized anti-mesothelin antibody, heavy chain variable region SEQ ID NO: 11, light chain variable region SEQ ID NO: 12 (antibody, V domains shown)
VH: QVQLVQSGAEVKKPGASVKVSCKASGYSFTGYTMNWVRQAPGQGLEWMGLITPYNGASSYNQKFRGRVTMTRDTSISTAYMELSRLRSDDTAVYYCARGGYDGRGFDYWGQGTLVTVSS
VL: EIVLTQSPATLSLSPGERATLSCSASSSVSYMHWYQQKPGQAPRLLIYDTSKLASGIPARFSGSGSGTDFTLTISSLEPEDFAVYYCQQWSKHPLTFGQGTKVEIKR
modifications: Artificial antibody
B1: the “Rmax(RU)” value with mesothelin protein [1] (BIAcore T200) was 180.6 RU. The “ka” value with mesothelin protein [1] (BIAcore T200, 25 degree C, 1:1 Langmuir model) was found to be 4.493e+06 M⁻¹ s⁻¹. In addition, the “kd” value in the series with mesothelin protein [1] (BIAcore T200, 25 degree C, 1:1 Langmuir model, listed as HuSS1) was determined as 1.124e-05 s⁻¹. For the same molecule, in the series with mesothelin protein [1] (BIAcore T200, 25 degree C, 1:1 Langmuir model, listed as HuSS1mAb), the “kd” value amounted to 1.124e-05 s⁻¹. The body weight changes result in series [2] is reported as “No body weight loss was observed”. In series [2] (TGI≥58% considered significant), the “tumor growth / anti-tumor activity” value is “did not show significant anti-tumor activity”. Also, in the series with mesothelin protein [3], the “Rmax(RU)” value stood at 58.1 RU, the Ka was determined as 5.091E+6 and the “dissociation rate constant (koff)” value came to 8.593E−5.

B2: DCBPR2002-2(DBCO-vc-MMAE)-2(DBCO-vc-seco-DUBA): dual-payload ADC: DCBPR2002-2(DBCO-vc-MMAE)-2Az reacted with DBCO-vc-seco DUBA; DAR ~4 (conjugate)
VH: B1 VH
VL: B1 VL
For the molecule B2, the IC50 in series [4] was determined as 46 nM. For the same molecule, the IC50 in series [5] came to 43.3 nM. In series [6], the body weight changes result is “No body weight loss was observed” and the “ranking of efficacy potency” value is “DCBPR2002-4(DBCO-vc-seco-DUBA)=DCBPR2002-2(DBCO-vc-MMAE)-2(DBCO-vc-seco-DUBA)=DCBPR2002-2(DBCO-vc-seco-DUBA)-2(DBCO-s-DM1)>DCBPR2002-4(DBCO-vc-MMAE)>DCBPR2002-2(DBCO-vc-MMAE)-2(DBCO-s-DM1)>DCBPR2002-4(DBCO-s-DM1)”. Also, in the series with mesothelin protein [3], the “Rmax(RU)” value is 50.98 RU, the Ka worked out at 4.752E+6 and the “dissociation rate constant (koff)” value amounted to 1.218E−4.

B3: DCBPR2002-2(DBCO-vc-MMAE)-2(DBCO-s-DM1): dual-payload ADC: DCBPR2002-2(DBCO-vc-MMAE)-2Az reacted with DBCO-S-DM1; DAR ~4 (conjugate)
VH: B1 VH
VL: B1 VL
Regarding B3, the IC50 in series [4] amounted to 15.4 nM. Further, in series [5], the IC50 came out at 4.6 nM. Also, in series [6], the body weight changes result is given as “No body weight loss was observed” and the “ranking of efficacy potency” value is “DCBPR2002-4(DBCO-vc-seco-DUBA)=DCBPR2002-2(DBCO-vc-MMAE)-2(DBCO-vc-seco-DUBA)=DCBPR2002-2(DBCO-vc-seco-DUBA)-2(DBCO-s-DM1)>DCBPR2002-4(DBCO-vc-MMAE)>DCBPR2002-2(DBCO-vc-MMAE)-2(DBCO-s-DM1)>DCBPR2002-4(DBCO-s-DM1)”.

B4: DCBPR2002-2(DBCO-vc-seco-DUBA)-2(DBCO-s-DM1): dual-payload ADC: DCBPR2002-2(DBCO-vc-seco DUBA)-2Az reacted with DBCO-S-DM1; DAR ~4 (conjugate)
VH: B1 VH
VL: B1 VL
Turning to B4, the IC50 in series [4] came to 27 nM. Moreover, the IC50 in series [5] was 36.3 nM. For the same molecule, in series [6], the body weight changes result was “No body weight loss was observed” and the “ranking of efficacy potency” value is listed as “DCBPR2002-4(DBCO-vc-seco-DUBA)=DCBPR2002-2(DBCO-vc-MMAE)-2(DBCO-vc-seco-DUBA)=DCBPR2002-2(DBCO-vc-seco-DUBA)-2(DBCO-s-DM1)>DCBPR2002-4(DBCO-vc-MMAE)>DCBPR2002-2(DBCO-vc-MMAE)-2(DBCO-s-DM1)>DCBPR2002-4(DBCO-s-DM1)”.

B5: DCBPR2002-4(DBCO-s-DM1) (conjugate)
VH: B1 VH
VL: B1 VL
For the molecule B5, the IC50 in series [4] amounted to 13.9 nM. The IC50 in series [5] stood at 2.6 nM. Further, in series [6], the body weight changes result is “No body weight loss was observed” and the “ranking of efficacy potency” value was “DCBPR2002-4(DBCO-vc-seco-DUBA)=DCBPR2002-2(DBCO-vc-MMAE)-2(DBCO-vc-seco-DUBA)=DCBPR2002-2(DBCO-vc-seco-DUBA)-2(DBCO-s-DM1)>DCBPR2002-4(DBCO-vc-MMAE)>DCBPR2002-2(DBCO-vc-MMAE)-2(DBCO-s-DM1)>DCBPR2002-4(DBCO-s-DM1)”.
